Assay results from patent publication US20050113304.

Target: T1, Buforin I
T1 chain: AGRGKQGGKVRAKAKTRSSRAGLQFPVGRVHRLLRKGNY

B1: Botulinum toxin B (protein)
chain 1: PVTINNFNYNDPIDNNNIIMMEPPFARGTGRYYKAFKITDRIWIIPERYTFGYKPEDFNKSSGIFNRDVCEYYDPDYLNTNDKKNIFLQTMIKLFNRIKSKPLGEKLLEMIINGIPYLGDRRVPLEEFNTNIASVTVNKLISNPGEVERKKGIFANLIIFGPGPVLNENETIDIGIQNHFASREGFGGIMQMKFCPEYVSVFNNVQENKGASIFNRRGYFSDPALILMHELIHVLHGLYGIKVDDLPIVPNEKKFFMQSTDAIQAEELYTFGGQDPSIITPSTDKSIYDKVLQNFRGIVDRLNKVLVCISDPNININIYKNKFKDKYKFVEDSEGKYSIDVESFDKLYKSLMFGFTETNIAENYKIKTRASYFSDSLPPVKIKNLLDNEIYTIEEGFNISDKDMEKEYRGQNKAINKQAYEEISKEHLAVYKIQMCKSVK
chain 2: APGICIDVDNEDLFFIADKNSFSDDLSKNERIEYNTQSNYIENDFPINELILDTDLISKIELPSENTESLTDFNVDVPVYEKQPAIKKIFTDENTIFQYLYSQTFPLDIRDISLTSSFDDALLFSNKVYSFFSMDYIKTANKVVEAGLFAGWVKQIVNDFVIEANKSNTMDKIADISLIVPYIGLALNVGNETAKGNFENAFEIAGASILLEFIPELLIPVVGAFLLESYIDNKNKIIKTIDNALTKRNEKWSDMYGLIVAQWLSTVNTQFYTIKEGMYKALNYQAQALEEIIKYRYNIYSEKEKSNINIDFNDINSKLNEGINQAIDNINNFINGCSVSYLMKKMIPLAVEKLLDFDNTLKKNLLNYIDENKLYLIGSAEYEKSKVNKYLKTIMPFDLSIYTNDTILIEMFNKYNSEILNNIILNLRYKDNNLIDLSGYGAKVEVYDGVELNDKNQFKLTSSANSKIRVTQNQNIIFNSVFLDFSVSFWIRIPKYKNDGIQNYIHNEYTIINCMKNNSGWKISIRGNRIIWTLIDINGKTKSVFFEYNIREDISEYINRWFFVTITNNLNNAKIYINGKLESNTDIKDIREVIANGEIIFKLDGDIDRTQFIWMKYFSIFNTELSQSNIEERYKIQSYSEYLKDFWGNPLMYNKEYYMFNAGNKNSYIKLKKDSPVGEILTRSKYNQNSKYINYRDLYIGEKFIIRRKSNSQSINDDIVRKEDYIYLDFFNLNQEWRVYTYKYFKKEEEKLFLAPISDSDEFYNTIQIKEYDEQPTYSCQLLFKKDEESTDEIGLIGIHRFYESGIVFEEYKDYFCISKWYLKEVKRKPYNLKLGCNWQFIPKDEGWTE
B1 was tested. Which “substrate cleavage in the endopeptidase assay” value did it give?
The value was “B-I is not a substrate for BttxB”.
